The values that follow come from article PMC5416850 (Nucleic Acids Research, 2017).

Data set [1] deals with T1, Vibrio cholerae HigB2 toxin (Vibrio cholerae, UniProt Q9KMA6).
T1 sequence: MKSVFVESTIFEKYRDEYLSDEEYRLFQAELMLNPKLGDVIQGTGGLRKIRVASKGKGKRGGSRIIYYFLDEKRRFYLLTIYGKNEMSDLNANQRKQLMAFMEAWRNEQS
The experiment in a line: ITC.

Data set [2] deals with Vibrio cholerae HigB2 toxin (Vibrio cholerae, UniProt Q9KMA6). The experiment in a line: crystal structure.
The data set “crystal structure” concerns the molecule itself. The data set can be described thus: crystal structure.
The data set “SAXS” deals with the molecule itself. The experiment in a line: SAXS.

B1: VcHigA2_(3-22) peptide (peptide)
peptide: NRDLFAELSSALVEAKQHSEW
On to B1, for which, in data set [1], the binding result is “binds”.

B2: nanobody Nb6 (VHH)
VHH: QVQLQESGGGLVQPGGSLRLSCAASGFTFSNYAMRWYRQAPGEEREFVAFISSVGGSTNYADSVKGRFTISRDNGKNTLYLQMNSLKPEDTAVYFCVARLSLISDSWGQGTQVTVSS
Take B2: the binding result in data set [2] is on record as “binds”.

B3: C-terminal domain of VcHigA2 (residues 38-104) (domain or fragment)
chain: LNISPDEIVSIREQFNMSRGVFARLLHTSSRTLENWEQGRSVPNGQAVTLLKLVQRHPETLSHIAEL
With B3, the binding result in the data set “crystal structure” is reported as “binds”.

B4: Vibrio cholerae HigA2 antitoxin, full length (natural protein)
chain: MSNRDLFAELSSALVEAKQHSEGKLTLKTHHVNDVGELNISPDEIVSIREQFNMSRGVFARLLHTSSRTLENWEQGRSVPNGQAVTLLKLVQRHPETLSHIAEL
By stoichiometry N is commonly meant the number of molecules, sites or subunits per partner or assembly. In data set [1], B4 yielded a dH of -26.6 ± 0.9 kcal/mol. Moreover, the “stoichiometry N” value in “SAXS” came out at 2.

B5: nanobody Nb2 (VHH)
VHH: QVQLQESGGGLVQPGGSLRLSCAASGFTLDYYAIGWFRQAPGKEREGVSCISSSGGTTNYADSVKGRFTVSRDNAKNTVYLQMNSLKPEDTAVYYCVADFACPLIREYDYWGQGTQVTVSS
Consider B5, for which the binding result in data set [2] is given as “binds”.
